In PMC2581425:
Several values for one entry are separate records, joined by “and”; a condition that tells them apart may be missing. Equal entries are not always repeated.

How the values were obtained:
[1] = molecular target: CagY-C2 (recombinant N-terminal His-tagged CagY repeat 2 motif A fragment) (Helicobacter pylori strain Q121B); experiment: SEC; 26/60 Superdex 200, 20 mM Tris (pH 8.0), 200 mM NaCl, 2 mL/min; calibrated with known standards; peaks analysed by SDS-PAGE (not shown)
[2] = molecular target: CagY-C2 (recombinant N-terminal His-tagged CagY repeat 2 motif A fragment) (Helicobacter pylori strain Q121B); experiment: non-reducing SDS-PAGE; affinity-purified His-tagged protein on 15% SDS-PAGE without reducing agent, beside a reducing gel; multimers held by disulphide linkages
[3] = molecular target: CagY-C2_(C3S/C28S/C41S) (Helicobacter pylori strain Q121B); experiment: as above

Row | Substance | stoichiometry N [1] | stoichiometry N [2] | stoichiometry N [3]
1 | CagY-C2 (recombinant N-terminal His-tagged CagY repeat 2 motif A fragment) (domain or fragment) | 2 | 2 and 3 and 4 | 
2 | CagY-C2_(C3S/C28S/C41S) (domain or fragment) |  |  | 2
